A value given as a limit tells only on which side of the number the result lay.

Results on 3 molecules are retold here after patent CN113929780A.

Test [1] addresses 人Claudin18.2 (human Claudin18.2, 密蛋白18.2) (human) (UniProt P56856). Briefly: relative binding activity against the control antibody, after strong-acid stress.
The target is the same in test [2]. Put plainly: relative binding activity against the control antibody, after repeated freezing and thawing.

B1: BY6-3 (antibody, IgG1, V domains shown)
VH: QVQLVQSGSELKKPGASVKISCKASGYSFTNYGMNWVRQAPGQGLKWMGWINTNTGEPTYAEEFKGRFVFSLDTSVSTAYLQISSLKAEDTAVYYCARLGFGNAMDYWGQGTLVTVSS
VL: DIVMTQSPDSLAVSLGERATMNCKSSQTLLNSGNQKNYLTWYQQKPGQPPKLLIYWATTRESGVPDRFSGSGSGTDFTLTISSLQAEDVAVYYCQNDYTYPLTFGAGTKLEIK
Regarding B1, the 相对结合活性 (relative to the control antibody BY0-0) in test [1] amounted to 80%.

B2: BY6-1 (antibody, IgG1, V domains shown)
VH: QVQLVQSGSELKKPGASVKISCKASGYSFTNYGMNWVRQAPGQGLKWMGWINTNTGEPTYAEEFKGRFVFSLDTSVSTAYLQISSLKAEDTAVYYCARLGFGNAMDYWGQGTLVTVSS
VL: DIVMTQSPDSLAVSLGERATMNCKSSQTLLNSGNQKNYLTWYQQKPGQPPKLLIYWATTRESGVPDRFSGSGSGTDFTLTISSLQAEDVAVYYCQNDYSYPLTFGAGTKLEIK
Regarding B2, the 相对结合活性 (relative to the control antibody BY0-0) in test [2] is more than 80%.

B3: BY6-4 (antibody, IgG1, V domains shown)
VH: QVQLVQSGSELKKPGASVKISCKASGYSFTNYGMNWVRQAPGQGLKWMGWINTNTGEPTYAEEFKGRFVFSLDTSVSTAYLQISSLKAEDTAVYYCARLGFGNAMDYWGQGTLVTVSS
VL: DIVMTQSPDSLAVSLGERATMNCKSSQTLLNSGNNKNYLTWYQQKPGQPPKLLIYWATTRESGVPDRFSGSGSGTDFTLTISSLQAEDVAVYYCQNDYSYPLTFGAGTKLEIK
As for B3, in test [1], the 相对结合活性 (relative to the control antibody BY0-0) was 80%.
